The source of these data is paper PMC7177239, “Transitional States in Ligand-Dependent Transformation of the Aryl Hydrocarbon Receptor into Its DNA-Binding Form” (International Journal of Molecular Sciences, 2020).

Data set [1] has as its target T1, aryl hydrocarbon receptor (AhR) (Mus musculus, UniProt P30561, D371A).
T1 construct: mutant of mβAhR/pcDNA3, synthesized in vitro in rabbit reticulocyte lysate
T1 sequence (P30561 10-848 D371A): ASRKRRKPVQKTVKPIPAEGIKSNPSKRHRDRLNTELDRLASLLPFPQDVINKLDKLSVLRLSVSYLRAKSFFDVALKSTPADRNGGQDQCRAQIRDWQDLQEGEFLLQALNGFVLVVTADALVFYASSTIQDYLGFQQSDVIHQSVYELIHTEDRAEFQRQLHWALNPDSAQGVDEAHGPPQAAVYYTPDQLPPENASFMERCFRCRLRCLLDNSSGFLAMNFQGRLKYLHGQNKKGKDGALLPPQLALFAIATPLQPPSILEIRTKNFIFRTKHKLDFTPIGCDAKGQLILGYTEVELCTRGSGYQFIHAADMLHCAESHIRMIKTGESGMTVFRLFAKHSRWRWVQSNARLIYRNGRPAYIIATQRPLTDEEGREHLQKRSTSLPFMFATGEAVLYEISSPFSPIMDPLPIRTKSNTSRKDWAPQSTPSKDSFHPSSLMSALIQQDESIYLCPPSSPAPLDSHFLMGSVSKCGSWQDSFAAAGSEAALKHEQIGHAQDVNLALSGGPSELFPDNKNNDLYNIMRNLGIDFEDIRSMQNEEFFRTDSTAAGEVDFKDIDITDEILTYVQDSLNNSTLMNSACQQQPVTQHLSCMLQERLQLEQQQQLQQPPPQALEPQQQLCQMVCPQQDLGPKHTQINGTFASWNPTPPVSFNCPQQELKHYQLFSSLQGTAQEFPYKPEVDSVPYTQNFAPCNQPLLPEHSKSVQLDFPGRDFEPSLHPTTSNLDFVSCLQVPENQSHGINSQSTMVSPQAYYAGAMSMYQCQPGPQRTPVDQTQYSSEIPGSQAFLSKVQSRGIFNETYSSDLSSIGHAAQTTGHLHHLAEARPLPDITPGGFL
Put plainly: [3H]TCDD saturation binding, hydroxyapatite assay.

Data set [2] has as its target T2, aryl hydrocarbon receptor (AhR), wild type (Mus musculus, UniProt P30561).
T2 construct: wtAhR (mβAhR/pcDNA3), synthesized in vitro in rabbit reticulocyte lysate
T2 sequence (P30561 10-848): T1 sequence (P30561 10-848 D371A) with A362D
Put plainly: [3H]TCDD saturation binding, hydroxyapatite assay.

Data set [3] concerns the target heat shock protein 90 (rabbit (endogenous in reticulocyte lysate)) (UniProt P30946).
Data set [4] deals with AhR A375V;ARNT. Briefly: EMSA. The conditions noted are these: MEDG (25 mM MOPS pH 7.5, 1 mM EDTA, 1 mM DTT, 10% glycerol), 150 mM KCl (no added KCl for AhRdPASB and AhR/PASB-ARNT), AhR:ARNT:buffer 1:1:8, 10 nM TCDD or 1% ….
For data set [5], the system named is AhR F281A;ARNT. Put plainly: EMSA. Particulars: MEDG (25 mM MOPS pH 7.5, 1 mM EDTA, 1 mM DTT, 10% glycerol), 150 mM KCl (no added KCl for AhRdPASB and AhR/PASB-ARNT), AhR:ARNT:buffer 1:1:8, 10 nM TCDD or 1% …. A general note: A gel shift assay detects complexes by their altered migration in electrophoresis.
The subject of data set [6] is AhRdPASB;ARNT. Put plainly: EMSA. The conditions noted are these: MEDG (25 mM MOPS pH 7.5, 1 mM EDTA, 1 mM DTT, 10% glycerol), 150 mM KCl (no added KCl for AhRdPASB and AhR/PASB-ARNT), AhR:ARNT:buffer 1:1:8, 10 nM TCDD or 1% ….
Data set [7] has as its system AhR/PASB-ARNT;ARNT. Briefly: EMSA. Particulars: MEDG (25 mM MOPS pH 7.5, 1 mM EDTA, 1 mM DTT, 10% glycerol), 150 mM KCl (no added KCl for AhRdPASB and AhR/PASB-ARNT), AhR:ARNT:buffer 1:1:8, 10 nM TCDD or 1% ….
The test system of data set [8] is wtAhR;ARNT. Briefly: EMSA. Particulars: MEDG (25 mM MOPS pH 7.5, 1 mM EDTA, 1 mM DTT, 10% glycerol), 150 mM KCl (no added KCl for AhRdPASB and AhR/PASB-ARNT), AhR:ARNT:buffer 1:1:8, 10 nM TCDD or 1% ….
The subject of data set [9] is AhR D371A;ARNT. Briefly: EMSA. The conditions noted are these: MEDG (25 mM MOPS pH 7.5, 1 mM EDTA, 1 mM DTT, 10% glycerol), 150 mM KCl (no added KCl for AhRdPASB and AhR/PASB-ARNT), AhR:ARNT:buffer 1:1:8, 10 nM TCDD or 1% ….
Data set [10] has as its system AhR R217A;ARNT. Put plainly: EMSA. Particulars: MEDG (25 mM MOPS pH 7.5, 1 mM EDTA, 1 mM DTT, 10% glycerol), 150 mM KCl (no added KCl for AhRdPASB and AhR/PASB-ARNT), AhR:ARNT:buffer 1:1:8, 10 nM TCDD or 1% ….

Positions count from the first letter of the chain named.

wild type aryl hydrocarbon receptor (mouse), sequence (P30561 whole entry): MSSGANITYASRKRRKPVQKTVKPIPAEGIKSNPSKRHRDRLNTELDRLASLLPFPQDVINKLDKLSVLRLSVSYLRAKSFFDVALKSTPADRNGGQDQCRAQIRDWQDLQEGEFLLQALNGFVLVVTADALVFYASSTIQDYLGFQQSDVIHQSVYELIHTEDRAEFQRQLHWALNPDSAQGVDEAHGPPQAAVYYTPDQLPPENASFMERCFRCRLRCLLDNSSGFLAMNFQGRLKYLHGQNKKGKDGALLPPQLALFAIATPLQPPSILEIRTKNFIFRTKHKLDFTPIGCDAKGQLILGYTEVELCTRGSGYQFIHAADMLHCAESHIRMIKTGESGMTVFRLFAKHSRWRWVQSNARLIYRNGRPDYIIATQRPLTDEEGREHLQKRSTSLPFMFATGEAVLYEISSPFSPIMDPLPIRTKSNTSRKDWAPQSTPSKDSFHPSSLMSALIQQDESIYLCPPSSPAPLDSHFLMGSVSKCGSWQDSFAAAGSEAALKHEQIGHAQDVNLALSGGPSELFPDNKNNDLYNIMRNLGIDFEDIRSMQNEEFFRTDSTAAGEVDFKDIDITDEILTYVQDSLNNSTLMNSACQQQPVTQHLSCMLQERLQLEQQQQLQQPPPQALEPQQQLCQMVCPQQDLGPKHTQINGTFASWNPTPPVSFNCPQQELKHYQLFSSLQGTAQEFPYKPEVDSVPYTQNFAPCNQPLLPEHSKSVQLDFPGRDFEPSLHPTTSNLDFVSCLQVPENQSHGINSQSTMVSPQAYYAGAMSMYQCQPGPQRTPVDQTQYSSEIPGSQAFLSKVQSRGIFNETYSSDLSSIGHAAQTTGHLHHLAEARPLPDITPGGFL
AhRdPASB, sequence (P30561 whole entry): as above

With `Clc1cc2c(cc1Cl)Oc1cc(Cl)c(Cl)cc1O2` [TCDD, 2,3,7,8-tetrachlorodibenzo-p-dioxin], the Kd (as a rule, the equilibrium constant for the complex coming apart) in data set [1] is 5 ± 0.4 nM; in [2], 4.6 ± 0.3 nM.

In [3], “AhR F281A (from UniProt P30561 1-848) (natural protein)” registered a percent inhibition by 20 mM sodium molybdate of constitutive AhR transformation/DNA binding in vitro (gel retardation) of 5%.

In data set [3], AhR/PASB-ARNT gave a percent inhibition by sodium molybdate of constitutive AhR transformation/DNA binding in vitro (gel retardation) of 9.1%.

With “AhRdPASB (from UniProt P30561 1-848) (natural protein)”, the percent inhibition by sodium molybdate of constitutive AhR transformation/DNA binding in vitro (gel retardation) in data set [3] amounted to 4.3%.

In data set [4], DRE3 displayed a binding signal (% of wt DNA binding) of 55. In addition, the binding signal (% inhibition by molybdate) is 5 in [5]; 4.3 in data set [6]; 9.1 in data set [7]; 69.6 in [8]; 61.7 in [9]; 67.1 in data set [10]. The binding signal (% DNA binding (reference)) in [8] stood at 100.

In data set [3], “wild type aryl hydrocarbon receptor (mouse) (from UniProt P30561 1-848) (natural protein)” registered a percent inhibition by sodium molybdate (up to 20 mM) of TCDD-dependent AhR transformation/DNA binding in vitro (gel retardation) of 69.6%.
